Results as given in patent US20230183352A1.

Biological target: CD80-FC (UniProt P33681)
Assay: ELISA, CD80-FC coated 4 µg/ml, biotin-PDL1-FC titrated

CD80-FC, sequence (P33681 35-242 limits assumed): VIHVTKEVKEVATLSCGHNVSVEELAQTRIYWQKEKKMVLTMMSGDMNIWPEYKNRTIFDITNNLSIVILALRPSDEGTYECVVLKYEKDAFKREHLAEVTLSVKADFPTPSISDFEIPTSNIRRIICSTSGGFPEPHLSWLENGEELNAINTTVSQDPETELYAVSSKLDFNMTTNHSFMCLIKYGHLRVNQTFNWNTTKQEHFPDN
Biotin QP004.3 (biotin-PDL1-FC), sequence (Q9NZQ7 19-238 limits assumed): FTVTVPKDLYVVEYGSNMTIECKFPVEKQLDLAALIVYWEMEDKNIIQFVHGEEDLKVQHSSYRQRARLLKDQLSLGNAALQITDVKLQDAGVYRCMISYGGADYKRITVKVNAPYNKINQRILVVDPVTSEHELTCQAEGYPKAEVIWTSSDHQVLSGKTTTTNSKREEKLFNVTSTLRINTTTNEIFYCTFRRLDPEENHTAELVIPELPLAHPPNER

ELISA reading at 0 µg/ml Biotin-QP004.3 (blank): 0.0484
ELISA reading at 0.00064 µg/ml Biotin-QP004.3: 0.048
ELISA reading at 0.0032 µg/ml Biotin-QP004.3: 0.0468
ELISA reading at 0.016 µg/ml Biotin-QP004.3: 0.0668
ELISA reading at 0.08 µg/ml Biotin-QP004.3: 0.179
ELISA reading at 0.4 µg/ml Biotin-QP004.3: 0.591
ELISA reading at 2 µg/ml Biotin-QP004.3: 1.87
ELISA reading at 10 µg/ml Biotin-QP004.3: 3.19
Substance: Biotin QP004.3 (biotin-PDL1-FC) (from UniProt Q9NZQ7 19-238) (Fc fusion)
